# US20140213531A1 (POLYPHOR, published 2014)
# Bridges are numbered along the chain shown (N, C = ends). [ ]: non-standard residue; d: D form. Nle = CCCC[C@H](N)C(=O)O
# T1: CathepsinG, from human neutrophils (human, UniProt P08311 21-244)
# T1 sequence (looked up): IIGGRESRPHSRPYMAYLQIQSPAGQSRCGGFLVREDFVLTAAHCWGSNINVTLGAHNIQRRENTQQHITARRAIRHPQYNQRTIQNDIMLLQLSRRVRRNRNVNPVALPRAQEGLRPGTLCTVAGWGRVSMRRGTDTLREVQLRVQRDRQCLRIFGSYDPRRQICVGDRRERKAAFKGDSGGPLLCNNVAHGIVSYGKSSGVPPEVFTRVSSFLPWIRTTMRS
# T2: Elastase from human neutrophils (human, UniProt P08246 30-247, limits assumed)
# T2 sequence (looked up): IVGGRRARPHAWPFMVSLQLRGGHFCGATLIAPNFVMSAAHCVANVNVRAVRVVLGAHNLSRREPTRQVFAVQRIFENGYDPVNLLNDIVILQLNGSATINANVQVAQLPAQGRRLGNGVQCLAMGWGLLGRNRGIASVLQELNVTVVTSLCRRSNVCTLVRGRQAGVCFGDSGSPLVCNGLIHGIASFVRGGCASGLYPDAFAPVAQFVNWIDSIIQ
# T3: Chymase, from human skin (human, UniProt P23946 22-247)
# T3 sequence (looked up): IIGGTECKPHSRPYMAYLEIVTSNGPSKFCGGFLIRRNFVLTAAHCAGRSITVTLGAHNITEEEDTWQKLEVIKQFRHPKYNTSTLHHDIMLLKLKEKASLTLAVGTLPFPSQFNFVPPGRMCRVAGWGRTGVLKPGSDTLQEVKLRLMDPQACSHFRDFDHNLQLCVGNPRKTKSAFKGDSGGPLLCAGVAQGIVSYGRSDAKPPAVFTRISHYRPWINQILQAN
# B1: Example 22 (peptide)
# peptide: ICTXSDPPICR
# HELM: PEPTIDE1{I.C.T.[Nle].S.D.P.P.I.C.R.[dP].P}$PEPTIDE1,PEPTIDE1,2:R3-10:R3|PEPTIDE1,PEPTIDE1,1:R1-13:R2$$$V2.0
# SMILES: CCCC[C@@H]1NC(=O)[C@H]([C@@H](C)O)NC(=O)[C@@H]2CSSC[C@H](NC(=O)[C@H]([C@@H](C)CC)NC(=O)[C@@H]3CCCN3C(=O)[C@@H]3CCCN3C(=O)[C@H](CC(=O)O)NC(=O)[C@H](CO)NC1=O)C(=O)N[C@@H](CCCNC(=N)N)C(=O)N1CCC[C@@H]1C(=O)N1CCC[C@H]1C(=O)N[C@@H]([C@@H](C)CC)C(=O)N2
# B2: Example 81 (peptide)
# peptide: XCTASXPPQCY
# HELM: PEPTIDE1{[Nle].C.T.A.S.[CCCCCCCC[C@H](N[*:1])C(=O)[*:2]].P.P.Q.C.Y.[dP].P}$PEPTIDE1,PEPTIDE1,2:R3-10:R3|PEPTIDE1,PEPTIDE1,1:R1-13:R2$$$V2.0
# SMILES: CCCCCCCC[C@@H]1NC(=O)[C@H](CO)NC(=O)[C@H](C)NC(=O)[C@H]([C@@H](C)O)NC(=O)[C@@H]2CSSC[C@H](NC(=O)[C@H](CCC(N)=O)NC(=O)[C@@H]3CCCN3C(=O)[C@@H]3CCCN3C1=O)C(=O)N[C@@H](Cc1ccc(O)cc1)C(=O)N1CCC[C@@H]1C(=O)N1CCC[C@H]1C(=O)N[C@@H](CCCC)C(=O)N2
# B3: Example 59 (peptide)
# peptide: ICTXSDPPICR
# HELM: PEPTIDE1{I.C.T.[Nle].S.D.P.P.I.C.R.[dP].P}$PEPTIDE1,PEPTIDE1,2:R3-10:R3|PEPTIDE1,PEPTIDE1,1:R1-13:R2$$$V2.0
# SMILES: CCCC[C@@H]1NC(=O)[C@H]([C@@H](C)O)NC(=O)[C@@H]2CSSC[C@H](NC(=O)[C@H]([C@@H](C)CC)NC(=O)[C@@H]3CCCN3C(=O)[C@@H]3CCCN3C(=O)[C@H](CC(=O)O)NC(=O)[C@H](CO)NC1=O)C(=O)N[C@@H](CCCNC(=N)N)C(=O)N1CCC[C@@H]1C(=O)N1CCC[C@H]1C(=O)N[C@@H]([C@@H](C)CC)C(=O)N2
# B4: Example 18 (peptide)
# peptide: ICTKSDPPYCR
# HELM: PEPTIDE1{I.C.T.K.S.D.P.P.Y.C.R.[dP].P}$PEPTIDE1,PEPTIDE1,2:R3-10:R3|PEPTIDE1,PEPTIDE1,1:R1-13:R2$$$V2.0
# SMILES: CC[C@H](C)[C@@H]1NC(=O)[C@@H]2CCCN2C(=O)[C@H]2CCCN2C(=O)[C@H](CCCNC(=N)N)NC(=O)[C@@H]2CSSC[C@H](NC1=O)C(=O)N[C@@H]([C@@H](C)O)C(=O)N[C@@H](CCCCN)C(=O)N[C@@H](CO)C(=O)N[C@@H](CC(=O)O)C(=O)N1CCC[C@H]1C(=O)N1CCC[C@H]1C(=O)N[C@@H](Cc1ccc(O)cc1)C(=O)N2
# B5: Example 49 (peptide)
# peptide: FCTKSDPPICS
# HELM: PEPTIDE1{F.C.T.K.S.D.P.P.I.C.S.[dA].P}$PEPTIDE1,PEPTIDE1,2:R3-10:R3|PEPTIDE1,PEPTIDE1,1:R1-13:R2$$$V2.0
# SMILES: CC[C@H](C)[C@@H]1NC(=O)[C@@H]2CCCN2C(=O)[C@@H]2CCCN2C(=O)[C@H](CC(=O)O)NC(=O)[C@H](CO)NC(=O)[C@H](CCCCN)NC(=O)[C@H]([C@@H](C)O)NC(=O)[C@@H]2CSSC[C@H](NC1=O)C(=O)N[C@@H](CO)C(=O)N[C@H](C)C(=O)N1CCC[C@H]1C(=O)N[C@@H](Cc1ccccc1)C(=O)N2
# B6: Example 65 (peptide)
# peptide: XCTKSDPPYCY
# HELM: PEPTIDE1{[O=C([C@@H](N[*:1])C1CCCCC1)[*:2]].C.T.K.S.D.P.P.Y.C.Y.[dP].P}$PEPTIDE1,PEPTIDE1,2:R3-10:R3|PEPTIDE1,PEPTIDE1,1:R1-13:R2$$$V2.0
# SMILES: C[C@@H](O)[C@@H]1NC(=O)[C@@H]2CSSC[C@H](NC(=O)[C@H](Cc3ccc(O)cc3)NC(=O)[C@@H]3CCCN3C(=O)[C@@H]3CCCN3C(=O)[C@H](CC(=O)O)NC(=O)[C@H](CO)NC(=O)[C@H](CCCCN)NC1=O)C(=O)N[C@@H](Cc1ccc(O)cc1)C(=O)N1CCC[C@@H]1C(=O)N1CCC[C@H]1C(=O)N[C@@H](C1CCCCC1)C(=O)N2
# B7: Example 42 (peptide)
# peptide: cyclo([Nle]CTKSDPPICT[dP]P)
# modifications: disulfide 2-10
# B8: Example 56 (peptide)
# peptide: ICTKSDPPYCR
# HELM: PEPTIDE1{I.C.T.K.S.D.P.P.Y.C.R.[dP].P}$PEPTIDE1,PEPTIDE1,2:R3-10:R3|PEPTIDE1,PEPTIDE1,1:R1-13:R2$$$V2.0
# SMILES: CC[C@H](C)[C@@H]1NC(=O)[C@@H]2CCCN2C(=O)[C@H]2CCCN2C(=O)[C@H](CCCNC(=N)N)NC(=O)[C@@H]2CSSC[C@H](NC1=O)C(=O)N[C@@H]([C@@H](C)O)C(=O)N[C@@H](CCCCN)C(=O)N[C@@H](CO)C(=O)N[C@@H](CC(=O)O)C(=O)N1CCC[C@H]1C(=O)N1CCC[C@H]1C(=O)N[C@@H](Cc1ccc(O)cc1)C(=O)N2
# B9: Example 37 (peptide)
# peptide: XCTKSDPPICN
# HELM: PEPTIDE1{[O=C([C@@H](N[*:1])C1CCCCC1)[*:2]].C.T.K.S.D.P.P.I.C.N.[dP].P}$PEPTIDE1,PEPTIDE1,2:R3-10:R3|PEPTIDE1,PEPTIDE1,1:R1-13:R2$$$V2.0
# SMILES: CC[C@H](C)[C@@H]1NC(=O)[C@@H]2CCCN2C(=O)[C@@H]2CCCN2C(=O)[C@H](CC(=O)O)NC(=O)[C@H](CO)NC(=O)[C@H](CCCCN)NC(=O)[C@H]([C@@H](C)O)NC(=O)[C@@H]2CSSC[C@H](NC1=O)C(=O)N[C@@H](CC(N)=O)C(=O)N1CCC[C@@H]1C(=O)N1CCC[C@H]1C(=O)N[C@@H](C1CCCCC1)C(=O)N2
# B10: Example 17 (peptide)
# peptide: ICTKSDPPQCR
# HELM: PEPTIDE1{I.C.T.K.S.D.P.P.Q.C.R.[dP].P}$PEPTIDE1,PEPTIDE1,2:R3-10:R3|PEPTIDE1,PEPTIDE1,1:R1-13:R2$$$V2.0
# SMILES: CC[C@H](C)[C@@H]1NC(=O)[C@@H]2CCCN2C(=O)[C@H]2CCCN2C(=O)[C@H](CCCNC(=N)N)NC(=O)[C@@H]2CSSC[C@H](NC1=O)C(=O)N[C@@H]([C@@H](C)O)C(=O)N[C@@H](CCCCN)C(=O)N[C@@H](CO)C(=O)N[C@@H](CC(=O)O)C(=O)N1CCC[C@H]1C(=O)N1CCC[C@H]1C(=O)N[C@@H](CCC(N)=O)C(=O)N2
# Biological target: T1, CathepsinG, from human neutrophils
# Test: cell-based or functional assay
IC50 [nmol],% inhibition at 100 µM [%],Binder
55,,B1
,61.3,B2
55,,B3
47,,B4
82,,B5
47,,B6
46,,B7
47,,B8
35,,B9
55,,B10

# Biological target: T2, Elastase from human neutrophils
# Test: cell-based or functional assay
row,IC50 [nmol],Binder
1,> 100000,B1
2,28,B2
3,> 100000,B3
4,> 100000,B4
5,> 10000,B5
6,> 100000,B8
7,> 100000,B10

# Biological target: Trypsin, Iodination grade, from human pancreas (human, UniProt P07477 24-247)
# Test: cell-based or functional assay
row,% inhibition at 100 µM [%],Binder
1,84,B1
2,84,B3
3,84,B4
4,96,B5
5,84,B8
6,90,B10

# Biological target: Chymotrypsin, from human pancreas (human, UniProt P17538 19-263)
# Sequence (P17538 19-263): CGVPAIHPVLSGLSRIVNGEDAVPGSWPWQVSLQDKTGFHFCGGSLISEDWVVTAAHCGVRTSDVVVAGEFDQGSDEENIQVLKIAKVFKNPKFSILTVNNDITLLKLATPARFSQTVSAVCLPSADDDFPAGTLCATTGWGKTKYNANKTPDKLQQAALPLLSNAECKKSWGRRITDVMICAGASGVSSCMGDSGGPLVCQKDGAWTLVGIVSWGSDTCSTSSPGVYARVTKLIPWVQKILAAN
# Test: cell-based or functional assay
row,% inhibition at 100 µM [%],Binder
1,0,B1
2,0,B3
3,25,B4
4,0,B5
5,25,B8
6,16,B10

# Biological target: T3, Chymase, from human skin
# Test: cell-based or functional assay
row,% inhibition at 100 µM [%],Binder
1,98.8,B1
2,98.8,B3
3,32.5,B4
4,0,B5
5,32.5,B8
6,27.6,B10

# Biological target: Thrombin, from Human Plasma, high activity (human, UniProt P00734 328-622)
# Test: cell-based or functional assay
row,% inhibition at 100 µM [%],Binder
1,13.1,B2
2,0,B4
3,7.9,B5
4,0,B8
5,0,B10

# Biological target: Coagulation Factor Xa, from human plasma (human, UniProt P00742 41-488, limits assumed)
# Sequence (P00742 41-488 limits assumed): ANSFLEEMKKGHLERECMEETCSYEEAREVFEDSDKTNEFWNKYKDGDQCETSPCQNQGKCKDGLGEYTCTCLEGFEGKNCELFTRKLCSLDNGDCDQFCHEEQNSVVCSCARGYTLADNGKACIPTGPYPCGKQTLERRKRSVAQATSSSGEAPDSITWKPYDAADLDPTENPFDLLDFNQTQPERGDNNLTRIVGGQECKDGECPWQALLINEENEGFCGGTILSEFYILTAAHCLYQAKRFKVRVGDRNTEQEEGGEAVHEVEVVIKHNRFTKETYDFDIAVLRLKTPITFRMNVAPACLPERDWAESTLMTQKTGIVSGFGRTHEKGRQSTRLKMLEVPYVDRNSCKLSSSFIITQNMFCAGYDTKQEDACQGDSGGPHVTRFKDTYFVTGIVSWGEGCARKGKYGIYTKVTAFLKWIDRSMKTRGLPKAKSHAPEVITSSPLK
# Test: cell-based or functional assay
row,% inhibition at 100 µM [%],Binder
1,8.7,B2

# Biological target: Urokinase from human urine (human, UniProt P00749 21-431, limits assumed)
# Test: cell-based or functional assay
row,% inhibition at 100 µM [%],Binder
1,5.7,B1
2,5.7,B3
3,6.2,B5
4,1,B6
5,7,B7
6,5,B9

# Biological target: Tryptase, from human lung (human, UniProt Q15661 31-275, limits assumed)
# Sequence (Q15661 31-275 limits assumed): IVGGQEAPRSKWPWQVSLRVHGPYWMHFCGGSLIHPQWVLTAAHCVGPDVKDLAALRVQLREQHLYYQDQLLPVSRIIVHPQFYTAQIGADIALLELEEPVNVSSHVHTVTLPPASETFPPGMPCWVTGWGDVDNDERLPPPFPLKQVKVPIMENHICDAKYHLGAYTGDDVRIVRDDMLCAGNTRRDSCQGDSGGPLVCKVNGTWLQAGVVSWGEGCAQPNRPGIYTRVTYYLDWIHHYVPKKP
# Test: cell-based or functional assay
row,% inhibition at 100 µM [%],Binder
1,3.8,B1
2,3.8,B3
3,88.3,B4
4,30.5,B5
5,57,B6
6,0,B7
7,88.3,B8
8,56,B9
9,90.4,B10
